From article PMC4330348, “Identification of protein complexes that bind to histone H3 combinatorial modifications using super-SILAC and weighted correlation network analysis” (Nucleic Acids Research, 2015)

The binders below were run against T1, histone H3 peptide aa1–20 trimethylated at K9 (H3K9me3) (UniProt P68431 2-21, trimethyl-lysine at K9; biotin attached to the C-terminus via a glycine-lysine linker) (assay: affinity purification with mass spectrometry; biotinylated histone H3 peptides on NeutrAvidin beads; pooled nuclear and MNase-solubilised chromatin extracts of SILAC-labelled MPC11 cells adjusted to 150 mM NaCl, 4°C; washes with 150 mM KCl, 0.2% Triton X-100; heavy pulldowns against a mixed light reference (super-SILAC); beads alone as control; two replicates). Conditions: one partner purified.
T1 construct: histone H3 N-terminal tail, aa1–20; glycine-lysine linker (told in words), carries the biotin; also called H3K9me3 modified H3 1–20 peptide; source: synthetic peptide (GL biochem)

Chain of Eed (Q921E6 whole entry): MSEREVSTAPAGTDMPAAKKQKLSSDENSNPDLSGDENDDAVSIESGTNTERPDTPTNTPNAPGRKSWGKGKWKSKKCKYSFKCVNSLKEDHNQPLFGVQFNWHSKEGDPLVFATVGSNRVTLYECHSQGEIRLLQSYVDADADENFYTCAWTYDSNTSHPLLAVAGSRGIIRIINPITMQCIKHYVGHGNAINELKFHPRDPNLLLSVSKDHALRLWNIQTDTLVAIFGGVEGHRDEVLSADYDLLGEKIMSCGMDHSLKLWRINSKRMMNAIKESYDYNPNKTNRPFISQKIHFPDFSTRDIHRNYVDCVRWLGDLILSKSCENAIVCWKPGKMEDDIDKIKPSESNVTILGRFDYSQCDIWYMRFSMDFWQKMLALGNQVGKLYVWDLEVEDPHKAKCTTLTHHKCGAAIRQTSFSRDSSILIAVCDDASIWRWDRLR
Chain of Ezh2 (Q61188 whole entry): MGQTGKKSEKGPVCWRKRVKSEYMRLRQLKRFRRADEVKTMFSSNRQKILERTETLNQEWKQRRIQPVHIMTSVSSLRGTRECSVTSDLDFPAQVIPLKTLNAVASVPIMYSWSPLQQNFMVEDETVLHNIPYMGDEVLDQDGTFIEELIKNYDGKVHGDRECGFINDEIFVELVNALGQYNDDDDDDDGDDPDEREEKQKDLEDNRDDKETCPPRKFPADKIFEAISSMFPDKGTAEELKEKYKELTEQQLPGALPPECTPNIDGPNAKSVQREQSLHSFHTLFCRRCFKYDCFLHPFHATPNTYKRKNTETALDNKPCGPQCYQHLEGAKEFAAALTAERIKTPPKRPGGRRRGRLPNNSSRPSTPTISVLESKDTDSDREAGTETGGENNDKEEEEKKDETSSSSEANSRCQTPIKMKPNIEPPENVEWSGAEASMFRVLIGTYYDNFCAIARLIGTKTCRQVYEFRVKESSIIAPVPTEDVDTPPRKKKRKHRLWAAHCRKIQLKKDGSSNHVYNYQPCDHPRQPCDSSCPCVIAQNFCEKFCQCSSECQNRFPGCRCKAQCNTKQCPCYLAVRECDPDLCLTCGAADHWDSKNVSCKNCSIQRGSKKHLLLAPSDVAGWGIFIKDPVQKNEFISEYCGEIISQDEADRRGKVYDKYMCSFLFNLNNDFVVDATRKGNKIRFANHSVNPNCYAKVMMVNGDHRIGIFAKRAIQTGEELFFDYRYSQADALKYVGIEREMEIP

| Binder | fold binding relative to the H3K27me3 peptide |
| --- | --- |
| Eed (natural protein, Eed, mouse; also called PRC2 complex member; source: endogenous, MPC11 nuclear and chromatin extract) not shown | ~3 fold |
| Suz12 (natural protein, mouse (endogenous in MPC11), UniProt Q80U70 1-741, looked up, Suz12, mouse; also called PRC2 complex member; source: endogenous, MPC11 nuclear and chromatin extract) MAPQKHGGGGGGGSGPSAGSGGGGFGGSAAAVAAAASGGKSGGGGCGGGGSYSASSSSAAAAAAAAGAAVLPVKKPKMEHVQADHELFLQAFEKPTQIYRFLRTRNLIAPIFLHRTLTYMSHRNSRTSIKRKTFKVDDMLSKVEKMKGEQESHSLSAHLQLTFTGFFHKNDKPSQNSENEQNSVTLEVLLVKVCHKKRKDVSCPIRQVPTGKKQVPLNPDLNQTKPGNFPSLAVSSNEFEPSNSHMVKSYSLLFRVTRPGRREFNGMINGETNENIDVSEELPARRKRNREDGEKTFVAQMTVFDKNRRLQLLDGEYEVAMQEMEECPISKKRATWETILDGKRLPPFETFSQGPTLQFTLRWTGETNDKSTAPVAKPLATRNSESLHQENKPGSVKPAQTIAVKETLTTELQTRKEKDNSNESRQKLRIFYQFLYNNNTRQQTEARDDLHCPWCTLNCRKLYSLLKHLKLCHSRFIFNYVYHPKGARIDVSINECYDGSYAGNPQDIHRQPGFAFSRNGPVKRTPITHILVCRPKRTKASMSEFLESEDGEVEQQRTYSSGHNRLYFHSDTCLPLRPQEMEVDSEDEKDPEWLREKTITQIEEFSDVNEGEKEVMKLWNLHVMKHGFIADNQMNHACMLFVENYGQKIIKKNLCRNFMLHLVSMHDFNLISIMSIDKAVTKLREMQQKLEKGESATPSNEEIAEEQNGTANGFSETNSKEKALETDGVSGVPKQSKKQKL | ~3 fold |
| Ezh2 (enzyme, Ezh2, mouse; also called PRC2 complex member; source: endogenous, MPC11 nuclear and chromatin extract) not shown | ~3 fold |
